# From the DeepSol protein solubility set
# Assay: soluble on expression in E. coli; label from the status in PepcDB or PDB records
row,Sequence,soluble on expression in E. coli
1,MIIMEKGVVSDSYEVAIARNPHLAEYLSKYRNETGRSPSFLVNIDSSLKSLAHVDVIYPVGDPIFIHIYERGKERRYKPIEPLLKDDEFEFMDAILDIIMSRASDYPPAENEEEQEKNIEDVYKKTVSVGSNKIKRNSVTLEKPLYDKMLYNVKKEIIGLGPLEPLIRDSHIEDISGIGPEDVYIVHKIFGSMPTDITFGSMERLMRFSKRLSERVGRPVSDKRPIVDATLPDGSRLSIVYSTDISQRGPSFTIRKFSEIPLSILNLIKYNTMSYEEAAYLWLALEYGQSVFVCGETASGKTTVVNAIIPFIRPESKIFSAEDTPEIRAPQKAWQQLVTRESGAEESRVTLYDLLRTALRSRPNYIIVGEIRGAEGAMAFQAMQTGHPVISTFHASSVKKMIQRFTGNPINIPVTFMDNLNIVLIQQAVYVGGKFLRRTTSINEIEGYYEDLGGVATRAVFEWDPSTDRHMFRGMNNSYILEEKIAKTAGLVDTSLIYNELFRRARILKDLADQKILDYYQVYEKIKEFYEGALANGY,not soluble
2,MKALARFGKAFGGYKMIDVPQPMCGPEDVVIEIKAAAICGADMKHYNVDSGSDEFNSIRGHEFAGCIAQVGEKVKDWKVGQRVVSDNSGHVCGVCPACEQGDFLCCTEKVNLGLDNNTWGGGFSKYCLVPGEILKIHRHALWEIPDGVDYEDAAVLDPICNAYKSIAQQSKFLPGQDVVVIGTGPLGLFSVQMARIMGAVNIVVVGLQEDVAVRFPVAKELGATAVVNGSTEDVVARCQQICGKDNLGLVIECSGANIALKQAIEMLRPNGEVVRVGMGFKPLDFSINDITAWNKSIIGHMAYDSTSWRNAIRLLASGAIKVKPMITHRIGLSQWREGFDAMVDKTAIKVIMTYDFDE,soluble
3,MQAKPQIPKDKSKVAGYIEIPDADIKEPVYPGPATPEQLNRGVSFAEENESLDDQNISIAGHTFIDRPNYQFTNLKAAKKGSMVYFKVGNETRKYKMTSIRDVKPTDVGVLDEQKGKDKQLTLITCDDYNEKTGVWEKRKIFVATEVK,soluble
4,MGSDKIHHHHHHMALIHEIITSENIKGFYNAKNENVENTLGEKAFPPKQQLGLKLSFIKGAAGKPVTLKAAAFDTKVPLRDRMAVELIDEEMPFFKEAMLVKEADRQQLNMLAQTKNNELIDTILASIYNDQATLIAGAKARLEAMRMEVLSKGKIHIQSNGVMKDIDYGLAEDQTTKPDAKWDSAGTATPLKDIEKAIEKMAERGFVPEAIIMNSKTFSLIKNAESTLDVVKPMAPNGAAVTKRDLNTYLEDELQIKVILKDGMFVGDDGESRKYFPDGFATLVPNGNLGYTVFGTTPEQSDLLGGEATDANVSIVETGIAITTTKTTDPVNVQTKVSMIALPSFERLEEVHIINGLQDA,not soluble
5,MGSDKIHHHHHHMIRGEMTMPSLTFQEIDNHLMNDNKPSNFIIELNKAGIIETEYPFTLLGALKDTPQSPKHHPEGSVWNHTLMVLDNAAERKHLSQNPQVLMWAALLHDLGKAPTTRVRKGRITSYDHDAVGEKLAGQFLRELTRDERFIHQVAKMVRWHMQILFVVKGLPFANVKKMAAEVSIEEIALLGFCDRLGRGEMTPQKKQEEEQTIEKFLVRCMEILQG,not soluble
6,PKISQLVAPFELTQNNNDKAILLIHGLTDSPFSFHDLSQFFYQQGFTVRTLLLPGHGVAPSELLNTDYQAWQQAATFAIDQTLNDYQQVYLGGLSTGGALIFNYLMQQKQVDEKIKGLFMWSPATKAKSDLAWLAQYIDGIPFVDWIDLDADIDFAKYESFPYNAGAQVHALMNLVVGEGANASRQMHDIPLFVVASEHDQTIDTAHTLQLVQQWQLAS,not soluble
7,GPLGSQELRLRVQGKEKHQMLEISLSPDSPLKVLMSHYEEAMGLSGHKLSFFFDGTKLSGKELPADLGLESGDLIEVWG,soluble
8,MAERKYFGTDGVRGKVGQFPITPDFALKLGWAAGKILATQGTKQVLIGKDTRISGYMLESALEAGLAAAGLSAAFVGPMPTPAVAYLTRTFRAEAGIVISASHNPYYDNGIKFFSANGEKLPDEVEEAIEALLDQPMDYVESDQLGKAIRINDAAGRYIEFCKGTFPADASLKGYKIVVDCAHGATYHIAPNVMRELGAEVIEIGTHPNGLNINDKCGATDISALQQAVLTSKADLGVAYDGDGDRIIMVDHLGNKVDGDQILFIIAREALRSGKLKGGVVGTLMSNMGLEIALKHLAIPFTRANVGDRYVLEQLKEKNWKLGGENSGHIIVLDKNTTGDGIIASLEVLAAMEAHKMSLNDLTHAVPLFPQVLLNVRFDGGNNPLENAAVKALAKDIETRLVGKGRILLRKSGTEPLIRVMVECEDAVLAQQYAEEIVSAIQNH,not soluble
9,MNEFKYNIGYALSGGFIKGFAHLGIMQALHEHGIRPEILSGVSAGALAAVFYADGKEPYHIVELFEHHSFKELTTFSINKQGLLKLDSFIDFLNSNLESKTIEELKIPTIITATDLDHGRIVSFKKGKIAERLAASCCMPILFAPIRINNTYYVDGGILMNLPVSPIRKECEKVIALNVDPLVADEYSKNVVSIALRAYHFIFQANTLPQKGIADLLIESYGLEEYSNRELERAEEIFEKGYNTATELLDRLLLENGTIWR,not soluble
10,MFMEFSAGLMPLETALTQMLSRITPLTAVETLPLVNCFGRILATDIVSPLDVPGFDNSAMDGYAVRVADLSADKPLPVAGKAFAGQPYQGEWPAGTCIRIMTGAPVPAGCEAVVMQEQTEQTDDGVRFTADVRCGQNIRRRGEDIRQDAVVFPAGTRLTTAELPVLASLGIADAQVVRKVRVALFSTGDELQLPGQPLEAGQIYDTNRLTIHLMLQQLGCEVINLGIIPDDPGKLRAAFIDADSQADVVISSGGVSVGEADYTKTILEELGEIAFWKLAIKPGKPFAFGKLSNSWFCGLPGNPVSAALTFYQLVQPLLAKLGGNTASAVPPRQRVRTASRLKKTPGRLDFQRGILQRSANGELEVTTTGHQGSHIFSSFSLGNCFIVLERERGNVEPGEWVEVEPFNALFGGL,not soluble
11,MAHHHHHHMSFVKGAIHVSILNNYMDFYKESTVDKIETSFSIRNNNESNTKNNEKRKSSLCIMNDEEKMKNKISKCIKNNNLYKNKKKRRKEKNIISNKSRSKKFLKFNIKGKDKKNNINSNIYNNANNNKLKIKNKNNNNNNNNNKINSCCRNVYKGSTNKRNSKLLLNGEIKHDEIFHTNIDNSFICMNKNDMNLIRKCKENNHPIKQMNTKIKKKKYNKKNVLISKQINKEIQMLKSNNSYIMYHMNEKRNIEKEKKKKKCKKIVKSILYNRKRSHYYISNFLKTCMKIKNNKIQKKLKKYVYLKDIYSTINMSNKQTCNNLNEQNKSQFFFDDLQKVRQVNKCDNKLYKMNFKSLKHQTNGKKNNIKENDNNNNFYNEDNSIAEILSDDYIILNKNKSNKMENKIYNNVINHRHSSEDIYLNHSKSKENNNNLVNSYVMKENNMEDKELMNDNEKKEGQLILKNVNKKIQLCNESKLDNEKKNKGDNIKLGNTKNKDNIYKYLNVLSINKLIKGETYLEKRTKKSDNSNEHKNDNIYDDKKIKYKSVENDTSELLDKNIDNSNFFDEANEKKKKLKKKKMNTCVNKNVMDYVNEDEYYLEERVKKKRKKKKKDNKKYNIKNKNESEEIFEDVSSTNSCIDSNNSGTFIYDEEICKHVINKGNIISNNNNNNNNNNYIVLTGNEKNMNAEEISEYITKQGLNFKEYLIWKEIKIKESKELIHLNLDSSFSVSKGAGLYNYGQNICFFNSIIQAIIRIPYICKDLLNKLHSINCEKRKKKTFCFYCLFEQFACNIISKKSVIKNVLIPYIKKYMCNSYHIGYQEDVHEYLRYFLNSLEKTSFFSSIYIQKMFTGVSKNVTICMNCNNVSLKYEQYYELSLDISSSNNLEDALKHFLSKEMLAGENGYYCEKCKKKKKATKQCVINKLPRVLTIQIKRFFMNSNFDIVKNHKNISYPLYLDMKYYVNNYDLFENNFNNNVISLYEKMNKTNCVGSTTNGPNKKNNKIYHQNNSCNIKSNNHFVHTNYNNKGQNILTPEKLTQQNIIPEHSFSKNKVNYENDFFLNNMNKKRECSNDDIISNINKNENIFFNNKDKEYMINEKYMNTNQCIKLRGGNHNINMHVLKIIENILIDLKESMCQKQIQNKLTSKVLRNMIREKKKLLIKQLKKIKFSKLYKDISLRISKDIDMLYYYFKVNRENDQFKKIIYKYKIDYYEYYVGSTNINADFINYNHNFDSPAKDHHNNNPHQNNDENNNRHSNVNFKEGNAKNSNKKNNYFSFELTGLIKHIGSGTDYGHYIALTKSNNNIYLQCDDNHISYINKKDILNCVKNAYVFIYTCINPEFIDFYNKYVDVLEKKNFDINLPVFEKRVKFKERITMPKEKFINKSLCY,not soluble
